What was measured:
Assay in all cases: 11F1 binding specificity competition assay
PCSK9 = PCSK9 (Homo sapiens, UniProt Q8NBP7); settings: 0.4 μg/mL 11F1, 0 to 20 μg/mL competitor
Method: (§1) Biotinylated PCSK9, diluted in buffer A (25 mM Tris, 150 mM NaCl, 0.1% BSA, 0.05% tween, pH 7.5) was bound to neutravidin coated 96 well plates at a concentration of 0.2 μg/mL, for one hour incubation at room temperature. Separately, 0.4 μg/mL of 11F1 was incubated for one hour at room temperature with various concentrations (ranging from 0 to 20 μg/mL) of either PCSK1, PCSK2, PCSK7, PCSK9 or furin (R&D Systems, Minneapolis, Minn.) (diluted in buffer A w/o tween). Furin inhibitor, at 4.5 μg/mL, was included with all furin containing reactions. The PCSK9 coated streptavidin plate was washed with buffer A and the antibody/proprotein convertase mixture was added to the plate and incubated at room temperature for one hour. After washing, bound antibody was detected by incubation with goat-α-human Fc-HRP (160 ng/mL, diluted in buffer A) (Jackson Laboratories, Bar Harbor, Me.) followed by TMB substrate. The reaction was stopped with 1 N HCl and the absorbance was read at a wavelength of 450 nm on a Spectramax Plus 384 spectrophotometer (Molecular Devices Inc., Sunnyvale, Calif.).
(§2) This assay relied on the ability of proprotein convertase in solution to compete for the binding of 11F1 to plate-captured PCSK9. […] All results were expressed as the mean OD450 value±standard deviation versus concentration of the proprotein convertase. […] Therefore, at the protein concentrations studied, 11F1 binds only to PCSK9 and not to the other proprotein convertase family members tested.

PCSK1 = target: T1, PCSK1 (Homo sapiens, UniProt P29120); settings: 0.4 μg/mL 11F1, 0 to 20 μg/mL competitor
T1 construct: purchased R&D Systems
T1 sequence (P29120 111-753): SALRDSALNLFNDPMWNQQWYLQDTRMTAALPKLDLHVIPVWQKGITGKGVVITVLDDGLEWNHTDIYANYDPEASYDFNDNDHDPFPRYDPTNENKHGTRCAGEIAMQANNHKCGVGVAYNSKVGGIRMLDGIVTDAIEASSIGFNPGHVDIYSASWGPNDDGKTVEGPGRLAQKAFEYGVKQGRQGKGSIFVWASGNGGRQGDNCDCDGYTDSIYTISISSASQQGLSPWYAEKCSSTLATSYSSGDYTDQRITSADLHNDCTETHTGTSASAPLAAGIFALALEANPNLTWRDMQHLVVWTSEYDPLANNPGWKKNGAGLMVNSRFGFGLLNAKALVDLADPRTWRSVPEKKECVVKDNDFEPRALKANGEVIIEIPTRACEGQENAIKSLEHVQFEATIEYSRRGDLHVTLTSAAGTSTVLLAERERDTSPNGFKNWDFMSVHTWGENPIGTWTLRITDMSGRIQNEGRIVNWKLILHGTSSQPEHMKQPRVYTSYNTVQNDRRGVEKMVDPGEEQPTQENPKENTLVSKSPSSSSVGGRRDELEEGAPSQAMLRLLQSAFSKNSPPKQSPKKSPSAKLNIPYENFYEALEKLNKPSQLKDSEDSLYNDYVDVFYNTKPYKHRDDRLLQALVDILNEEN
Method: as §1, §2

PCSK7 = target: T2, PCSK7 (Homo sapiens, UniProt Q16549); settings: 0.4 μg/mL 11F1, 0 to 20 μg/mL competitor
T2 construct: purchased R&D Systems
T2 sequence (Q16549 142-785): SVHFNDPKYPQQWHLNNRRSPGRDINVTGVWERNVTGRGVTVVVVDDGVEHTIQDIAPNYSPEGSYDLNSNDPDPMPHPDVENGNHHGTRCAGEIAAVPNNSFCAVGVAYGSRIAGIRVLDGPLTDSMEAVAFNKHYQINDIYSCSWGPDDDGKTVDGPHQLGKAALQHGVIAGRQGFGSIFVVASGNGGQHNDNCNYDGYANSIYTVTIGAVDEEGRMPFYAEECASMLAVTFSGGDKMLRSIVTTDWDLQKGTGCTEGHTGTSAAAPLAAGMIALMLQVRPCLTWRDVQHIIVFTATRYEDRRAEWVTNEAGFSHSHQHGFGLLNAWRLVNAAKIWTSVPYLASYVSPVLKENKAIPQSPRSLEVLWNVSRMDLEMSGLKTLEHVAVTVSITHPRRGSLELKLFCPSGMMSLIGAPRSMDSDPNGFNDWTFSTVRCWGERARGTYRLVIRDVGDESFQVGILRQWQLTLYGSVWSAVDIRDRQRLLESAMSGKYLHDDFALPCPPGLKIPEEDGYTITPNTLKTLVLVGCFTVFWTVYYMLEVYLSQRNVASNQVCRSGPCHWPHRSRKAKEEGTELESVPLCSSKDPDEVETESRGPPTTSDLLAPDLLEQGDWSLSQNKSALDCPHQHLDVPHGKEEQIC
Method: as §1, §2

PCSK2 = target: T3, PCSK2 (Homo sapiens, UniProt P16519); settings: 0.4 μg/mL 11F1, 0 to 20 μg/mL competitor
T3 construct: purchased R&D Systems
T3 sequence (P16519 110-638): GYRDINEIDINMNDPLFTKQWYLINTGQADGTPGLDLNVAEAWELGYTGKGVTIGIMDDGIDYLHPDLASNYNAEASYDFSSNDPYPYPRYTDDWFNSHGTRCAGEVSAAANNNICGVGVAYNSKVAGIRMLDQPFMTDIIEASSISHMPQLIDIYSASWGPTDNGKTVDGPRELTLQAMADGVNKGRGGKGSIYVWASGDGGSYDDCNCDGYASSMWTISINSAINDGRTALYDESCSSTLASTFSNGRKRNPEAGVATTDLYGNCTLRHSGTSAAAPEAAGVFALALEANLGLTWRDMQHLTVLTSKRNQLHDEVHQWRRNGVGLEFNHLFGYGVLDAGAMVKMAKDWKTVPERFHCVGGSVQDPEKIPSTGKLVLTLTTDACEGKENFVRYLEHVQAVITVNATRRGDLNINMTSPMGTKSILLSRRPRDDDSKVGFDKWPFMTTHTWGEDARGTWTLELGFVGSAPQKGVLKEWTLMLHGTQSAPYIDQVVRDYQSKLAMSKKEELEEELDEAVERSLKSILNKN
Method: as §1, §2

furin = target: T4, furin (Homo sapiens, UniProt P09958); settings: 0.4 μg/mL 11F1, 0 to 20 μg/mL competitor, furin inhibitor 4.5 μg/mL
T4 construct: purchased R&D Systems
T4 sequence (P09958 108-794, species assumed): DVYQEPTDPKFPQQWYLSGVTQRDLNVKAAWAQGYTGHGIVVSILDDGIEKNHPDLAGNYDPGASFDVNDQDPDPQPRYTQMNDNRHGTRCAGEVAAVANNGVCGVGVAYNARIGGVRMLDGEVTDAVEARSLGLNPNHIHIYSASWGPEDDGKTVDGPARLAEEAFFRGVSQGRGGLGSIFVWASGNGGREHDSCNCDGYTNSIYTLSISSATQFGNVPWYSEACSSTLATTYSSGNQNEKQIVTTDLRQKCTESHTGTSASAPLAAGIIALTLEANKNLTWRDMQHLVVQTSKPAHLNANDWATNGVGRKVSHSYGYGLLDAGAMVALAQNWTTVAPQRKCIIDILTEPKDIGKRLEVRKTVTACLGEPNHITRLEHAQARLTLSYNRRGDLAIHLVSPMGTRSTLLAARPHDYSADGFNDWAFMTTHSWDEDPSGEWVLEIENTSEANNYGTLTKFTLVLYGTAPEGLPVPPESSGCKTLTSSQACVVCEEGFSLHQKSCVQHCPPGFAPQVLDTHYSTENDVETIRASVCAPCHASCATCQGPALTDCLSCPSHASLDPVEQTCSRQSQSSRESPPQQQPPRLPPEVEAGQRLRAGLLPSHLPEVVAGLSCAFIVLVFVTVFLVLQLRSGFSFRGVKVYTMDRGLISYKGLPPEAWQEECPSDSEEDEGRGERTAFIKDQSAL
Method: as §1, §2

PCSK9, sequence (Q8NBP7 153-692): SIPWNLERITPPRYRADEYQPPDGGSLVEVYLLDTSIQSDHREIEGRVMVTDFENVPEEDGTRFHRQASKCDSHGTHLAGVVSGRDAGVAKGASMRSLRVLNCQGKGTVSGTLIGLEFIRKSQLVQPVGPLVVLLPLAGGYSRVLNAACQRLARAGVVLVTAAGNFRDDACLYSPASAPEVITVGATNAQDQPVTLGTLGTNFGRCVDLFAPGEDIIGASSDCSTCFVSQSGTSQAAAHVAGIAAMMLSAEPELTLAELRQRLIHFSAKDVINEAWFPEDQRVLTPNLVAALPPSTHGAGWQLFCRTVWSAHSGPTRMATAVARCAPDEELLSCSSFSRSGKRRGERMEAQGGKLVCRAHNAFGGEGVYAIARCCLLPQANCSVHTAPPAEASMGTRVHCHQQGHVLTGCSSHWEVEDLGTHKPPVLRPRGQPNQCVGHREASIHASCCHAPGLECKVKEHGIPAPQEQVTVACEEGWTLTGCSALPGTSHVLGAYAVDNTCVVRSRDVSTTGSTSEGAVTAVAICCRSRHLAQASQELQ

Substance: 11F1: anti-PCSK9 ABP, light/heavy variable region SEQ ID NO 465/463 [Antibody 11F1]
- effect of pre-incubation with PCSK9 in solution on 11F1 binding to plate-captured PCSK9 (PCSK9): dose dependently and robustly reduced
- effect of pre-incubation with PCSK1 in solution on 11F1 binding to plate-captured PCSK9 (PCSK1): did not significantly impact the binding
- effect of pre-incubation with PCSK7 in solution on 11F1 binding to plate-captured PCSK9 (PCSK7): did not significantly impact the binding
- effect of pre-incubation with PCSK2 in solution on 11F1 binding to plate-captured PCSK9 (PCSK2): did not significantly impact the binding
- effect of pre-incubation with furin in solution on 11F1 binding to plate-captured PCSK9 (furin): did not significantly impact the binding

— patent US12612465B2, “Formulations comprising PCSK9 specific monoclonal antibodies” (Amgen Inc., priority 2012, dated 2026)
